# Assay results as given in the RNAGym collection of RNA variant scans (doi:10.1021/acssynbio.7b00057).
# B1: Pistol ribozyme (parent)
# chain: GGGUCGUUGUUCCAUAAUCGCGUGGAUAUGGCACGCAAGUUUCUACCGGGCACCGUAAAUGUCCGACUGGAGCCGUUCGGGCGGCUAUAAACAGACCUCAGGCCCGAAGCGUGGCGGCACCUGCCGCCGGUGGUAAAAAAGAUCGGAAGAGCACACGUCU
# Variants of: B1
# Assay: aptazyme ON/OFF ratio, guanine; higher = stronger switching; co-transcriptional cleavage with and without guanine
row,Variant,aptazyme ON/OFF ratio
1,U7C U8G G9A U10A U11G C12A C13U,1.16
2,U7A U8C U10G U11C,1.74
3,U8G G9A U11G C12A C13U,1.24
4,U7G G9U U10A U11C C12A,1.56
5,U7A U8A G9U U10C C12G,1.43
6,U7C G9C U10C U11G C12U,1.01
7,U8A G9A U10A C12G,1.17
8,U7G G9C C12U C13A,1.3
9,G9C U10A U11A C12A,1.52
10,U7A U8A G9U U10C U11C C12U C13A,1.02
11,U8C U10G U11C C13A,1.05
12,U7C U8G G9A U11A C12U C13U,1.15
13,U8C U10C C13A,1.07
14,U7G U11G C12G C13G,1.14
15,U7G U8G U10G U11A C12A C13G,1.31
16,G9C U10G U11G C12U C13A,1.09
17,U7G U8A G9U C12U C13U,1.07
18,U7G U8A G9U U10G U11G C12A,1.24
19,U7C U8C G9U U10G U11G C13G,1.13
20,G9A U10C U11G C12A C13A,1.22
21,U7G C12G C13U,1.17
22,U7A U8G U10A C12G,1.22
23,U7C U8A G9U U10C C12A C13U,1.15
24,U7C G9A U10C U11A C13G,1.12

row,Variant,aptazyme ON/OFF ratio
1,U7A U8C G9A U11A C13U,1.3
2,U7A U8A U10A U11A C13U,1.11
3,U7C U8C U10A U11A C12G C13A,1.14
4,U7C U8G G9A U10G U11G C12U,1.36
5,U7C G9A U11G C12U C13G,1.23
6,U7C U11G,1.2
7,U7G U8G G9C U10A C12U C13A,1.01
8,U8C G9U U10G U11A C12A C13G,1.17
9,U7C G9U U10C C12A C13G,1.09
10,U7G U8A G9C U10G C12A,1.02
11,U7G U8C U11A C12A C13U,1.25
12,U7A U8G G9A,3.13
13,U7A U8C G9A U10C U11C C12U C13G,1.03
14,G9U U10C C12U C13U,1.63
15,U7A U8G G9U U10G C12U,1.28
16,U7G U8C G9C U10C C12A C13A,1.08
17,U8A G9C U10A U11G C13G,1.04
18,U10A U11A C13G,1.12
19,U8C G9A U11C C12G C13U,1.18
20,U7C U10C U11C C12G C13G,1.18
21,U8A U10A U11A C12A C13G,1.04
22,U7C G9C U11A C12A C13A,1.08
23,U7G U8G G9C C12A,1.22
24,U7G U8A U10C U11C C12G,1.29

row,Variant,aptazyme ON/OFF ratio
1,U7G U8G U10A U11C C12G,1.25
2,U7G U8G G9C U10C U11G,1.35
3,U7C U8C G9U U10C U11C,1.3
4,U8C G9A U10G U11G C13A,1.15
5,U7A U8C G9C U10G C12A C13A,1.06
6,U8G G9A U11C C12A C13G,1.16
7,U7C U8A U11A C12U C13U,1.24
8,U7A U8C G9A U10C C12G C13G,1.16
9,U7C U8C C12G,1.18
10,U8C G9C U10C U11C C12G,1.08
11,U7G U8G G9A U10C U11G C12A C13A,1.11
12,U7A U8A U10G U11A C12G C13U,1.51
13,U7G U8A G9U U11C C12A C13U,1.16
14,U7G G9U U10A C12U C13U,1.15
15,G9C U10C U11A C12G,1.14
16,U7G U8C U11C C12G C13G,1.11
17,U8C G9U U10G C12A C13G,1.13
18,U7G U8A G9C U10C U11C C12A C13A,1.05
19,U7G G9C U10A U11C C12G C13G,1.06
20,U7C G9U U10G C12U C13G,1.15
21,U7G U8G G9A U10A U11G C12G C13G,1.15
22,U8A G9A U10A U11G C12U,1.15
23,U7A U8C U10C U11C C12A C13G,1.16
24,U7G U11A C12G C13A,1.08

row,Variant,aptazyme ON/OFF ratio
1,U7G U8G G9U U10A U11C C12G C13A,1.08
2,G9C C12A C13A,1.29
3,U7A U8G U10G U11C C12U C13U,1.41
4,U7G U8G G9C C12G,1.47
5,U7C U8C G9A U11A C12G C13U,1.23
6,U7G U8A G9C U10C C12A C13U,1.01
7,U7C U8C G9A U10A U11A C13G,1.2
8,U7A U8A U10A C12U C13G,1.1
9,U7G G9A U11C C13U,1.14
10,U7A U8C U10G,1.47
11,U7A U8A G9A U10G U11G C13A,1.19
12,U8C G9U U11C C12U C13G,1.04
13,U7G G9A U11A C12U C13A,1.16
14,G9U U10A U11C C12A C13G,0.991
15,U7G U11C C13A,1.03
16,U7G C12A C13A,1.22
17,U7C U8C U10G U11G C12A,1.26
18,U7G U8C G9A U10A C12U C13U,1.05
19,U7C U8A U10G C12A C13U,1.27
20,U8A G9A U10A U11A C12A C13A,1.29
21,U7G U8A G9U U10G U11A C12A,1.09
22,U7C U8A G9U U11A C12U,1.06
23,U7C G9C U10C U11A C12U C13U,1.03
24,U8G G9U U11G C13G,1.04

row,Variant,aptazyme ON/OFF ratio
1,U7A U8A U11G C12A C13G,1.11
2,U7G U8C G9U U10C U11C C12G C13U,1.22
3,U7C U8G G9U U10C U11G C13A,1.19
4,U7A U8A G9U U10A U11G C13A,1.22
5,U7A U8A G9C U10C U11C C12G,1.05
6,U7A U8C U10A U11G C12G,1.32
7,U7C U10G U11G C12U,1.21
8,U7G U8C G9A U10A U11G C12A C13A,1.06
9,U7A U8G G9U U10C U11C C12A C13U,1.2
10,U7A G9C U10G C13G,1.14
11,U8G G9C U10A U11A C13U,1.15
12,U7A U8C G9C U11C C12G C13U,1.09
13,U7A U8A G9C U10A,1.27
14,U7G U8C G9U U10C C13A,1.37
15,U7G U8C G9A U11A C12G,1.1
16,U7A G9A U10A U11G C12G,1.13
17,U7G U8C G9C U10C U11C C12A C13G,1.21
18,U7C U8A G9A U10G C12U C13G,1.14
19,U7C U8C G9U U10G U11A C13U,1.17
20,U7G G9C U10C C12A C13U,1.36
21,U7C G9C U10A U11G C12A,1.11
22,G9A U10C U11A C12A,1.67
23,U8A G9C U10C U11G C12A C13G,1.08
24,U8C G9A U10C U11G C12A C13G,1.27

row,Variant,aptazyme ON/OFF ratio
1,U7A U8A G9U U11G C12G C13U,1.1
2,U7C G9U U10A U11A C12G C13A,1.17
3,U7A G9A U10A U11C C12G C13U,1.2
4,U7C U8C G9A U10A U11G C12G C13G,1.15
5,U7A U8C G9C U10C U11A,1.03
6,U7C U8C G9A U10G U11A C12G C13U,1.11
7,G9U U10C U11G C12G C13A,1.17
8,U7C G9U U10G U11C C12U,1.14
9,U7A U8C U10A U11A C12U C13G,1.33
10,U8G G9A U11G C12U C13G,1.16
11,U7G U8A U10G U11A C12G C13G,1.25
12,U7G G9U U10G U11A C12U C13G,1.17
13,U7C U8C G9C U10G C12U C13G,1.09
14,U7C U8G G9C U10C U11A C12U C13G,1.21
15,U7C U8C G9U U10A U11C C12A,1.19
16,U7A U8A G9U U11C C12U,1.13
17,U7C G9U U10G U11G C13A,1.09
18,U7C U8C G9A U11C C12G C13A,1.34
19,U7A U8G U11C C12A C13G,1.12
20,U7A U8G U10C U11C C12G,1.42
21,U10A U11G C12A C13A,1.04
22,U7C U8A U10A U11A C12A,1.15
23,U8C G9U U10C U11A C12G C13G,1.11
24,U7A U8A G9U U10C C12U,1.24

row,Variant,aptazyme ON/OFF ratio
1,G9A U10A U11C C12U,1.13
2,U8C G9C U10C U11G C13A,1.14
3,U7C U8C G9C U10C U11A C12G C13G,1.13
4,U8G U10G C12G C13A,1.31
5,U7A U8C G9U U10G U11G C13G,1.14
6,U8C G9U U10G C12A C13A,1.48
7,U7A U8G G9A U10C U11C C12U C13G,1.08
8,U7G U8C G9C C13U,1.15
9,U8A U10G U11C C12G C13A,1.41
10,U7G G9U U10C C13U,1.66
11,U7G G9A U10C U11C C12G C13A,1.1
12,U7G U8C G9A U10A U11A C12A C13G,1.12
13,U8G G9A U10C U11G C12A C13U,1.16
14,U7G U8A U10A U11A C13U,1.21
15,U7G G9A U10G U11G C12A C13U,1.1
16,U7A U8G U10C,1.75
17,U7G U8G G9C U10A U11G C13U,1.04
18,U7A U8G G9A U10G C12U C13A,1.43
19,U7G U8G U11C C12U C13U,1.44
20,U7A U8A G9C U11A C12G,1.19
21,U7A U8A G9U U10C U11A C13U,1.08
22,U7A G9U U11C C12U C13U,1.26
23,U7C U8C U10G C12A C13G,1.08
